According to patent publication US20250129355A1:
Each block holds one molecule with its values, some of them ahead of it.

Columns and labels:
[1] = tested on: T1, Upstream protein 1 (Up1) from Desulfonema ishimotonii
T1 sequence: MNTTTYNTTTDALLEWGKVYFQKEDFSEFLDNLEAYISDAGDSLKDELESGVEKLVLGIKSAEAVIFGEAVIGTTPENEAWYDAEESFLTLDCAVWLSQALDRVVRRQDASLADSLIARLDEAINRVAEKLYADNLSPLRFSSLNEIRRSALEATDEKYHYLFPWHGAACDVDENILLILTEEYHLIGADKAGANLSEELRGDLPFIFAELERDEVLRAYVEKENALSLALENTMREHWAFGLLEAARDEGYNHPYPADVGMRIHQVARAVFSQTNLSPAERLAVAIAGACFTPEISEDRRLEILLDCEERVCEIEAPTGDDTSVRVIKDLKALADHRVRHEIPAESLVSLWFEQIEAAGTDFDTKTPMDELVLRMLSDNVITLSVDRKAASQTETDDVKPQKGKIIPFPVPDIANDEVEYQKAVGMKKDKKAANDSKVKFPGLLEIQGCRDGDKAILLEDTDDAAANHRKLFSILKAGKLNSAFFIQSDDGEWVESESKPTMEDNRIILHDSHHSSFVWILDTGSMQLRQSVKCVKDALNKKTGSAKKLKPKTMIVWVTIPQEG

[2] = tested on: Up1 fragment residues 396-565
[3] = tested on: TwinStrep-Up1Δloop mutant
[4] = tested on: Up1 fragment amino acids 296-565
[5] = tested on: Up1 single alanine substitution mutants
[6] = molecular target: Up1 fused to an 3×HA epitope tag (expressed from a plasmid in HEK293T cells) (Desulfonema ishimotonii); assay: cell-based or functional assay

Molecule: gRAMP(D429A/D654A)-CHAT-crRNA complex
Up1 cleavage in vitro (SDS-PAGE) [1]: disrupting the catalytic sites of gRAMP (D429A/D654A) did not

efficiency of Up1 cleavage in HEK293T cells across a panel of endogenous transcripts [6]: 3 to 22%
Molecule: gRAMP-CHAT-crRNA complex from Desulfonema ishimotonii
Up1 cleavage in vitro (western blot) (Up1 with D430 deleted): the deletion of D430 had no effect
cleavage of truncated Up1 in vitro (SDS-PAGE) [2]: Up1 fragments containing residues 396-565 were fully active in vitro
cleavage of Up1 within the Up1-Up3 complex (SDS-PAGE) (Up1-Up3 complex): an Up1-Up3 complex which could be cleaved by gRAMP-CHAT in the presence of target RNA
proteolytic cleavage of Up1 in the purified Up1-Up3 complex (SDS-PAGE, Coomassie) (Up1-Up3 complex): only in the lane with gRAMP-CHAT (+) and target RNA (+) the Up1 band becomes weaker and two new bands appear, at about 50 kDa and just above 15 kDa; much Up1 stays uncleaved; the Up3 band at 25 kDa is unchanged; no new bands without gRAMP-CHAT or with gRAMP-CHAT but without target RNA
Up1 cleavage in vitro (western blot) [3]: truncating the loop by four residues, or deleting M427 alone, prevented in vitro cleavage
cleavage of truncated Up1 [4]: Smaller versions of Up1 containing amino acids 296-565 retained full activity for processing
gRAMP-CHAT mediated protein cleavage of alanine mutants [5]: No single alanine mutation blocks CHAT protease activity
Up1 cleavage in vitro (SDS-PAGE) [1]: the largest protein, Up1, is specifically cleaved in response to target RNA
cleavage of the protein substrate in vitro (SDS-PAGE) [1]: the substrate is neighboring protein WP_124327587.1 (FIG. 2), that cleavage of the substrate is dependent on presence of a target RNA
substrate turnover in vitro [1]: cleaving 100-fold excess of Up1 substrate in minutes
Up1 cleavage in vitro (western blot) (Up1 with M427 deleted): truncating the loop by four residues, or deleting M427 alone, prevented in vitro cleavage

B1: gRAMP-CHAT(H615A/C658A)-crRNA complex (enzyme, part only; not given: gRAMP, His tag, crRNA)
chain, part: MSNPIRDIQDRLKTAKFDNKDDMMNLASSLYKYEKQLMDSSEATLCQQGLSNRPNSFSQLSQFRDSDIQSKAGGQTGKFWQNEYEACKNFQTHKERRETLEQIIRFLQNGAEEKDADDLLLKTLARAYFHRGLLYRPKGFSVPARKVEAMKKAIAYCEIILDKNEEESEALRIWLYAAMELRRCGEEYPENFAEKLFYLANDGFISELYDIRLFLEYTEREEDNNFLDMILQENQDRERLFELCLYKARACFHLNQLNDVRIYGESAIDNAPGAFADPFWDELVEFIRMLRNKKSELWKEIAIKAWDKCREKEMKVGNNIYLSWYWARQRELYDLAFMAQDGIEKKTRIADSLKSRTTLRIQELNELRKDAHRKQNRRLEDKLDRIIEQENEARDGAYLRRNPPCFTGGKREEIPFARLPQNWIAVHFYLNELESHEGGKGGHALIYDPQKAEKDQWQDKSFDYKELHRKFLEWQENYILNEEGSADFLVTLCREIEKAMPFLFKSEVIPEDRPVLWIPHGFLHRLPLHAAMKSGNNSNIEIFWERHASRYLPAWHLFDPAPYSREESSTLLKNFEEYDFQNLENGEIEVYAPSSPKKVKEAIRENPAILLLLCAGEADMTNPFRSCLKLKNKDMTIFDLLTVEDVRLSGSRILLGAAESDMVPPLEFSVDEHLSVSGAFLSHKAGEIVAGLWTVDSEKVDECYSYLVEEKDFLRNLQEWQMAETENFRSENDSSLFYKIAPFRIIGFPAE
Up1 cleavage in vitro (SDS-PAGE) [1]: mutating the catalytic residues of the CHAT protease (H615A/C658A) abolished activity
